Consider two substances from patent US20110306044A1.

Values joined by “and” are separate entries in the source; they are usually repeats but may differ in a detail not shown here. Equal values may be shown once.

In assay [1] the target is RDC-1 (NEOKINE receptor), transiently expressed in 293 cells. Description: 125I-T112 at 0.1 nm on 293 cells transiently transfected with RDC-1, no competitor.
The target is the same in assay [2]. Kind of assay: competition: bound 125I-T112 on RDC-1-transfected 293 cells with unlabelled T112 at 3.0 nm.

“125I-T112 (radioiodinated NEOKINE) (ligand)”: in assay [1], the cpm bound in cell pellets was 37600 cpm and 27000 cpm.
Take T112 (NEOKINE), unlabelled (ligand): the cpm bound in cell pellets in assay [2] is 8340 cpm and 9230 cpm.
